Results on 8 molecules are retold here after US10005829B2, “Synthetic linear apelin mimetics for the treatment of heart failure” (priority 2012, dated 2018).

Where a SMILES comes first, the peptide text is derived from it. [ ]: non-standard residue; d: D form. The star is where a group is joined. Pro(trans-4-Ph) = O=C(O)[C@@H]1C[C@@H](c2ccccc2)CN1; Cha = N[C@@H](CC1CCCCC1)C(=O)O; pGlu = O=C1CC[C@@H](C(=O)O)N1; dNle = CCCC[C@@H](N)C(=O)O; dNva = CCC[C@@H](N)C(=O)O; Bn = c1ccc(C*)cc1

Series [1] is described as follows: Surrogate activity-based plasma stability assay. The series is classed as in vitro ADME. Particulars: 5% rat plasma, 37° C., EC50 at t0 and t24 hrs; Table 2.
Procedure: • Stability assay: stability half-life, (t ½), values were determined by converting peak areas at each time point to percent remaining relative to initial (t=0) peak area. Percent remaining=100×(sample peak area)÷(t=0 peak area) • The natural log of percent remaining values were calculated and plotted against sample time (Microsoft Excel). The slope of this line, k, was determined by linear regression (Microsoft Excel). • Stability half-life was then calculated by the formula, t ½=0.693÷k Surrogate Activity-based Plasma Stability Assay:
The calcium flux protocol described above was followed, with the following changes. The peptides were also incubated with 5% rat plasma (Bioreclamation # [sequence]-M, Na Heparin-treated). Readings were taken at time points t0 and t24 hrs, after incubation in a 37° C. tissue culture incubator. Peptide plasma half-life in minutes was estimated by calculating the following:
For a further series, the target named is T1, APJ receptor (human, UniProt P35414 1-380).
T1 sequence (looked up): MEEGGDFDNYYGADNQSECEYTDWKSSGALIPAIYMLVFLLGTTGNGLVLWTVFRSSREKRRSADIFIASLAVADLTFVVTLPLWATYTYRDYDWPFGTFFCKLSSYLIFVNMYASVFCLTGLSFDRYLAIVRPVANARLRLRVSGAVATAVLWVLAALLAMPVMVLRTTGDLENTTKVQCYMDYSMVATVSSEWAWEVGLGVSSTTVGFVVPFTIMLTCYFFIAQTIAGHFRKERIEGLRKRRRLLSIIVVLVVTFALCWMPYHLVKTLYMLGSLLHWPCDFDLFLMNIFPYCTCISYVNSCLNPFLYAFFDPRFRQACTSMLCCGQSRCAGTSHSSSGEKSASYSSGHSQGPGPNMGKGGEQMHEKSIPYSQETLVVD
In words: cell-based or functional assay.

Regarding `CCCC[C@@H](NC(=O)[C@@H]1CCCN1C(=O)CNC(=O)[C@H](CCCCN)NC(=O)[C@H](Cc1c[nH]cn1)NC(=O)[C@@H](C)NC(=O)[C@H](Cc1ccc(OCc2ccccc2)cc1)NC(=O)[C@H](CCCNC(=N)N)NC(=O)[C@@H]1CCCN1C(=O)[C@H](CCCNC(=N)N)NC(=O)[C@@H]1CCC(=O)N1)C(=O)N[C@H](C)C(=O)N[C@H](Cc1ccccc1)C(=O)O` [Example 27, pE-R-P-R-Y(Bzl)-a-H-K-G-P-nle-a-f-OH] ([pGlu]RPRY(Bn)[dA]HKGP[dNle][dA][dF]-OH), the “Surrogate activity-based Plasma stability t½” value in series [1] came out at 348.9 min.

B1: pE-R-P-R-L-a-H-E-G-P-nle-a-f-OH (peptide)
peptide: [pGlu]RPRL[dA]HEGP[dNle][dA][dF]-OH
SMILES: CCCC[C@@H](NC(=O)[C@@H]1CCCN1C(=O)CNC(=O)[C@H](CCC(=O)O)NC(=O)[C@H](Cc1c[nH]cn1)NC(=O)[C@@H](C)NC(=O)[C@H](CC(C)C)NC(=O)[C@H](CCCNC(=N)N)NC(=O)[C@@H]1CCCN1C(=O)[C@H](CCCNC(=N)N)NC(=O)[C@@H]1CCC(=O)N1)C(=O)N[C@H](C)C(=O)N[C@H](Cc1ccccc1)C(=O)O
Take B1: the “hAPJ Ca^2+ Flux EC50” value with APJ receptor was 200 nM.

B2: pE-R-P-R-L-a-H-K-D-P-nle-a-f-OH (peptide)
peptide: [pGlu]RPRL[dA]HKDP[dNle][dA][dF]-OH
SMILES: CCCC[C@@H](NC(=O)[C@@H]1CCCN1C(=O)[C@H](CC(=O)O)NC(=O)[C@H](CCCCN)NC(=O)[C@H](Cc1c[nH]cn1)NC(=O)[C@@H](C)NC(=O)[C@H](CC(C)C)NC(=O)[C@H](CCCNC(=N)N)NC(=O)[C@@H]1CCCN1C(=O)[C@H](CCCNC(=N)N)NC(=O)[C@@H]1CCC(=O)N1)C(=O)N[C@H](C)C(=O)N[C@H](Cc1ccccc1)C(=O)O
Take B2: the “hAPJ Ca^2+ Flux EC50” value in the series with APJ receptor came to 95.9 nM. With [pGlu]R[Pro(trans-4-Ph)]RL[dA]HKGP[dNle][dA][dF]-OH [pE-R-(trans-4-PhP)-R-L-a-H-K-G-P-nle-a-f-OH], the “hAPJ Ca^2+ Flux EC50” value with APJ receptor was 9.9 nM. On the same count and under the same terms, the result for [pGlu]RPRL[dCys(tBu)]HKGP[dNle][dA][dF]-OH [pE-R-P-R-L-c(tBu)-H-K-G-P-nle-a-f-OH] reads 693 nM.

B3: pE-R-P-R-L-v-H-K-G-P-nle-a-f-OH (peptide)
peptide: [pGlu]RPRL[dV]HKGP[dNle][dA][dF]-OH
SMILES: CCCC[C@@H](NC(=O)[C@@H]1CCCN1C(=O)CNC(=O)[C@H](CCCCN)NC(=O)[C@H](Cc1c[nH]cn1)NC(=O)[C@H](NC(=O)[C@H](CC(C)C)NC(=O)[C@H](CCCNC(=N)N)NC(=O)[C@@H]1CCCN1C(=O)[C@H](CCCNC(=N)N)NC(=O)[C@@H]1CCC(=O)N1)C(C)C)C(=O)N[C@H](C)C(=O)N[C@H](Cc1ccccc1)C(=O)O
As for B3, in the series with APJ receptor, the “hAPJ Ca^2+ Flux EC50” value came out at 7.9 nM.

B4: pE-R-P-R-Cha-nva-H-K-G-P-nle-a-f-OH (peptide)
peptide: [pGlu]RPR[Cha][dNva]HKGP[dNle][dA][dF]-OH
SMILES: CCCC[C@@H](NC(=O)[C@@H]1CCCN1C(=O)CNC(=O)[C@H](CCCCN)NC(=O)[C@H](Cc1c[nH]cn1)NC(=O)[C@@H](CCC)NC(=O)[C@H](CC1CCCCC1)NC(=O)[C@H](CCCNC(=N)N)NC(=O)[C@@H]1CCCN1C(=O)[C@H](CCCNC(=N)N)NC(=O)[C@@H]1CCC(=O)N1)C(=O)N[C@H](C)C(=O)N[C@H](Cc1ccccc1)C(=O)O
With B4, in the series with APJ receptor, the “hAPJ Ca^2+ Flux EC50” value was found to be 9.4 nM.

B5: pE-R-P-R-L-d-H-K-G-P-nle-a-f-OH (peptide)
peptide: [pGlu]RPRL[dD]HKGP[dNle][dA][dF]-OH
SMILES: CCCC[C@@H](NC(=O)[C@@H]1CCCN1C(=O)CNC(=O)[C@H](CCCCN)NC(=O)[C@H](Cc1c[nH]cn1)NC(=O)[C@@H](CC(=O)O)NC(=O)[C@H](CC(C)C)NC(=O)[C@H](CCCNC(=N)N)NC(=O)[C@@H]1CCCN1C(=O)[C@H](CCCNC(=N)N)NC(=O)[C@@H]1CCC(=O)N1)C(=O)N[C@H](C)C(=O)N[C@H](Cc1ccccc1)C(=O)O
Consider B5, for which the “hAPJ Ca^2+ Flux EC50” value in the series with APJ receptor was 7.7 nM.
